According to patent publication US20180044416A1:

Each substance was assayed against human FcRn with human beta2M on MDCK II clone 15 cells (human) (UniProt P55899) (assay: cell-based or functional assay).
Chain of UniProt P55899 (P55899 24-365, chain 1 of 2): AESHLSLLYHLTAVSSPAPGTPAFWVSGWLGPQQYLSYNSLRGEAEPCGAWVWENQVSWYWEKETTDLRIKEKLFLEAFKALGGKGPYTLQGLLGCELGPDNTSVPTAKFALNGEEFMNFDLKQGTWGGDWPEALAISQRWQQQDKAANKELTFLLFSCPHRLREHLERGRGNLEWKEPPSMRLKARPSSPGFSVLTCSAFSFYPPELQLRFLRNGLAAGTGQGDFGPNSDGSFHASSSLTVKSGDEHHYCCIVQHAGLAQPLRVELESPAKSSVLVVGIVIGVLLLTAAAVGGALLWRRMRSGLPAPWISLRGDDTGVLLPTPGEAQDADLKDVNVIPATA
Chain of UniProt P55899 (P61769 21-119, chain 2 of 2, further chain): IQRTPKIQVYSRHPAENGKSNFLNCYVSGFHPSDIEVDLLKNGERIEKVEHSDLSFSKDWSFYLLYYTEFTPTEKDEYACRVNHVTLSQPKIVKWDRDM
Substance IgG1 IgM tail-piece, T307A (Fc fusion) has a Blockade of IgG intracellular uptake EC50 of 0.54 µg/mL and a Blockade of IgG recycling EC50 of 0.35 µg/mL.
Substance IgG4 IgM tail-piece, V308P (Fc fusion) has a Blockade of IgG intracellular uptake EC50 of 0.51 µg/mL and a Blockade of IgG recycling EC50 of 0.42 µg/mL.
In the case of IgG1 IgM tail-piece, H310L (Fc fusion), the Blockade of IgG recycling, maximal inhibition is reported as 45%.
IgG1 IgM tail-piece, V308P (Fc fusion) gave a Blockade of IgG intracellular uptake EC50 of 0.34 µg/mL and a Blockade of IgG recycling EC50 of 0.55 µg/mL.
Work on IgG4 IgM tail-piece, V308F (Fc fusion) yielded a Blockade of IgG intracellular uptake EC50 of 0.42 µg/mL and a Blockade of IgG recycling EC50 of 0.56 µg/mL.
With IgG1 IgM tail-piece, V308F (Fc fusion) the Blockade of IgG intracellular uptake EC50 was 0.12 µg/mL and the Blockade of IgG recycling EC50 was 0.073 µg/mL.
With IgG4 IgM tail-piece, T307A (Fc fusion) the Blockade of IgG intracellular uptake EC50 was 0.5 µg/mL.
